# Target: the molecule itself
# Test: crystal structure
protein,measurement,value
"E. coli glyoxylate reductase/hydroxypyruvate reductase A (EcGhrA), wild type, His6-tagged (enzyme, UniProt P75913 1-312, looked up) MDIIFYHPTFDTQWWIEALRKAIPQARVRAWKSGDNDSADYALVWHPPVEMLAGRDLKAVFALGAGVDSILSKLQAHPEMLNPSVPLFRLEDTGMGEQMQEYAVSQVLHWFRRFDDYRIQQNSSHWQPLPEYHREDFTIGILGAGVLGSKVAQSLQTWRFPLRCWSRTRKSWPGVQSFAGREELSAFLSQCRVLINLLPNTPETVGIINQQLLEKLPDGAYLLNLARGVHVVEDDLLAALDSGKVKGAMLDVFNREPLPPESPLWQHPRVTITPHVAAITRPAEAVEYISRTIAQLEKGERVCGQVDRARGY",binding result,binds

# — doi:10.1101/2022.04.02.486822 (bioRxiv, 2022)
